Reference: ChEMBL document CHEMBL4476871, “SULFAMIDE AND SULFAMATE INHIBITORS OF hHint1” (2018)

Experiments:
[1] = compound: Nc1nc2c(ncn2[C@@H]2O[C@H](COP(=O)(O)NCCc3c[nH]c4ccccc34)[C@@H](O)[C@H]2O)c(=O)[nH]1; test: (§1) Inhibition of full-length human N-terminal His6-tagged Hint1 expressed in Escherichia coli Rosetta 2 pLysS cells assessed as ratio of Kcat to Km
[2] = compound: Nc1ncnc2c1ncn2[C@@H]1O[C@H](COP(=O)(O)OC(=O)CCc2c[nH]c3ccccc23)[C@@H](O)[C@H]1O; test: as §1

B1: Adenosine 5'-monophosphoramidase HINT1 (Homo sapiens), P49773 (protein)
chain: MADEIAKAQVARPGGDTIFGKIIRKEIPAKIIFEDDRCLAFHDISPQAPTHFLVIPKKHISQISVAEDDDESLLGHLMIVGKKCAADLGLNKGYRMVVNEGSDGGQSVYHVHLHVLGGRQMHWPPG
[1]
  kcat/Km: 1.1 ×10⁷ /M/s
[2]
  kcat/Km: 1.1 ×10⁷ /M/s
